Consider 120 sequences from the supplement of paper PMC10126150.

± gives the standard deviation of the averaged measurements.
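Further: ATP exposure 15 min at 22 °C before imaging.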

The data set deals with ATP. Description: switch fluorescence ratio, 500 uM ATP over buffer (Cy3 cluster intensity, sum of 5 cycles each) (fold (ratio)); higher = stronger signal-on switching upon ATP binding; sequences stand for … in TCGTCGGCAGCGTCAGATGTGTATAAGAGACAGTTTTTTTTTTTTTTTTTTTTTTTTT…TC. The note with it: aptamer strand: ATP DNA aptamer (quencher-CACCTGGGGGAGTATTGCGGAGGAAGG + anchor), 100 nM annealed; ATP concentration: 500 uM. The method, boiled down: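 The quencher-labelled ATP aptamer, at 100 nM, was annealed to Cy3-labelled switching-strand clusters on a modified Illumina MiSeq flow-cell. The clusters were imaged in selection buffer, then after 15 min with 500 uM ATP at 22 °C, and this buffer/ATP cycle ran five times with NaOH stripping and re-annealing between runs. Per-cluster fluorescence ratios, summed target-cycle over summed buffer-cycle Cy3 intensity, were averaged per switch-domain sequence. Clusters outside 100-1000 RFU were excluded.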
As for TTGTGGGGCT, the switch fluorescence ratio came to 0.9974 ± 0.009. The value for ACCTGGCCTG was 0.999 ± 0.021; that for AGTTTCTGAG was 1.01 ± 0.056; that for CGTTTGGGGT was 1.002 ± 0.0071. Regarding AGCTTAAGGA, the switch fluorescence ratio is 1.03 ± 0.035. The value for CCTAATGTAA was 1.08 ± 0.027; that for GGTGTGGCTA was 0.989 ± 0.012. The value for TTGGGAGTTG was 0.984 ± 0.037; that for TGACATAGGT was 1.02 ± 0.019; that for GTTGCTAGGT was 0.9984 ± 0.0044.

Consider TGGTTGGGAT, for which the switch fluorescence ratio is 1 ± 0.04.

TTTGAGTGTT: the switch fluorescence ratio came out at 0.985 ± 0.011. The value for GATTTGATGT was 1 ± 0.03; that for CAGGTAGGGG was 0.9507 ± 0.0065. The value for AGAGTAGTTA was 0.9737 ± 0.0036; that for ATGGATTGGC was 1.08 ± 0.035. The value for TGTCATAATG was 0.97 ± 0.015. In the case of TGGTGCACC, the switch fluorescence ratio was 0.983 ± 0.042. With TCGGTTTAAC, the switch fluorescence ratio was found to be 1.04 ± 0.038.

GCCACGGCGA: the switch fluorescence ratio amounted to 1.02 ± 0.021.

In the case of GCTCTGTGGG, the switch fluorescence ratio was 0.967 ± 0.024. With AGGGGGTAGC the figure was 0.992 ± 0.047; with TGCTAGCCGG, 1 ± 0.015. The value for TACGATACAC was 1.44 ± 0.075; that for GTTTAATTGG was 1 ± 0.024; that for ATCGCGGGGT was 0.979 ± 0.025. With TGGTTATATT the figure was 1.02 ± 0.026; with TTTTTTTTCG, 1.05 ± 0.12. Regarding TAGGGGTGTT, the switch fluorescence ratio came to 1.06 ± 0.12. With CGGTGGCTGC, the switch fluorescence ratio was 0.967 ± 0.011. With TTATTAAATA the figure was 0.98 ± 0.016; with TAAATCCTA, 1.02 ± 0.022. With TACTTGGCTT the figure was 1.02 ± 0.031.

As for GGTCGGGGTG, the switch fluorescence ratio is 1.09 ± 0.069. The value for GATTGTATGG was 1.02 ± 0.025; that for AATTGTATAT was 0.985 ± 0.042; that for AAAAACGGCT was 0.99 ± 0.017. The value for ATATAAATTA was 1.01 ± 0.05; that for AAGTGCGGGA was 0.9967 ± 0.0086.

Take TTATTCCCGT: the switch fluorescence ratio was 0.985 ± 0.064. Take CAGGTCTTAT: the switch fluorescence ratio was determined as 1.01 ± 0.028. With TTATAAAGAT the figure was 0.992 ± 0.035; with CGTTGTGAGG, 1.03 ± 0.038; with TTATAATATT, 1.03 ± 0.025.

On to GAGGCAGAGT, for which the switch fluorescence ratio was 1.04 ± 0.023. The value for CGTGCATGAG was 1.01 ± 0.02; that for GGGGGACTAT was 1.03 ± 0.023; that for GTCGGGAGCC was 0.967 ± 0.018.

Regarding TGCTTAACAT, the switch fluorescence ratio is 1.01 ± 0.019. Regarding ATTGGATGGG, the switch fluorescence ratio worked out at 0.997 ± 0.057. In the case of GGTCCATACG, the switch fluorescence ratio came to 1.01 ± 0.025. The value for GTTGTGGTTT was 0.975 ± 0.034. The value for TGTCTATAGT was 0.986 ± 0.036; that for GGCAATGGTT was 1.1 ± 0.11. With TGGACGGCGC the figure was 1.04 ± 0.016; with AGTTTATTAT, 1.02 ± 0.015. Take GGGCGGTATA: the switch fluorescence ratio was 0.986 ± 0.025. For GGTTTGTTAT, the switch fluorescence ratio came to 1 ± 0.014. With CGGTTGAATG the figure was 0.98841 ± 0.00073; with CGAAGGATTT, 1.003 ± 0.0041; with CTCGGATAGC, 1.02 ± 0.045. With ACGGGCGGCG the figure was 0.979 ± 0.047; with TATAAAGCAG, 1.03 ± 0.024. With TACCAATGGA the figure was 1.02 ± 0.04. With TTTTGACTGT, the switch fluorescence ratio is 0.966 ± 0.015. The value for ACAAGGGGCT was 1.02 ± 0.021. With TGACTACATG the figure was 1.04 ± 0.013.

On to ATTGTATTTA, for which the switch fluorescence ratio was 0.9842 ± 0.0079. The value for AAGGGGGCCG was 1.06 ± 0.092; that for TGGACTTGGG was 0.983 ± 0.023; that for TTGTCGGTTT was 0.983 ± 0.014. With CGTATCAATT the figure was 1.003 ± 0.004; with AGTTGCGGTC, 0.9516 ± 0.0041.

Take TGATATAGTG: the switch fluorescence ratio stood at 1.002 ± 0.01. The value for TTCAGGTTAG was 1.01 ± 0.027. The value for TAGCGTGAGC was 1.02 ± 0.04.

As for TGAATCGGGA, the switch fluorescence ratio is 0.99 ± 0.011.

With ACCGCTTGTA, the switch fluorescence ratio stood at 1.05 ± 0.052.

In the case of TTTGCGGAAT, the switch fluorescence ratio was determined as 1.05 ± 0.027. The value for TTTGGATCAG was 1.01 ± 0.02.

On to GGAGTCGTTT, for which the switch fluorescence ratio is 0.987 ± 0.027.

Take TGGGAAAACT: the switch fluorescence ratio was 1.07 ± 0.12. With AAAATATAGA the figure was 0.9798 ± 0.0025; with TCGGTTTGCA, 0.997 ± 0.018; with AGGGAGGGCT, 1.02 ± 0.02. Take ATCATGAGTC: the switch fluorescence ratio is 0.972 ± 0.03.

TTATGGGTCT: the switch fluorescence ratio was found to be 1 ± 0.036. With TGGGACCGGC the figure was 0.98 ± 0.021. As for GGTTCCACGC, the switch fluorescence ratio was 1.09 ± 0.025. Regarding TTGGTCCCGA, the switch fluorescence ratio turned out to be 1.001 ± 0.0014. With ATCGGGTTTG the figure was 0.977 ± 0.03; with GCCATGTCGA, 0.9921 ± 0.0061; with CGGATATTGC, 1 ± 0.059. The value for AGTTGTGCAG was 1.02 ± 0.062.

For the sequence GGTTGGCGTT, the switch fluorescence ratio came out at 0.961 ± 0.03.

Turning to AAAGGCTGAA, the switch fluorescence ratio was found to be 1.03 ± 0.048. With TGTGGTCTGA the figure was 1.01 ± 0.09; with TTGTTTTGGT, 0.966 ± 0.016. With GACCTTTCGT the figure was 1.1 ± 0.069; with GCTTGATTGG, 1.04 ± 0.019. In the case of ATGGTTTTGC, the switch fluorescence ratio was determined as 0.977 ± 0.029.

In the case of TTTAGTTGTT, the switch fluorescence ratio stood at 1.01 ± 0.03. The value for CAGTTATGTT was 0.993 ± 0.036; that for GATACTGCGC was 1.16 ± 0.087. With CATATGGTTG, the switch fluorescence ratio is 0.99 ± 0.018.

Consider TGTTTTTTGA, for which the switch fluorescence ratio is 0.99 ± 0.011. GGGTAGGAGG: the switch fluorescence ratio was found to be 0.982 ± 0.013. Regarding TACTGGGGGT, the switch fluorescence ratio worked out at 1.04 ± 0.074. The value for CGTAGGGAAT was 1.014 ± 0.0064; that for TAGAACAAAA was 0.99 ± 0.015. For the sequence TGCGGGGCGG, the switch fluorescence ratio is 1.02 ± 0.034. With TCCCTGTTGC the figure was 1.09 ± 0.045.

AAGCTAGGAG: the switch fluorescence ratio was found to be 0.999 ± 0.041.

Turning to TTGTGATAGC, the switch fluorescence ratio was 1.05 ± 0.075. For AATCTCATAA, the switch fluorescence ratio was found to be 0.986 ± 0.034. With TACTTTAGCT the figure was 1.109 ± 0.0069; with AGACTCTTGA, 1 ± 0.0083; with TGCTTCTAAT, 1.02 ± 0.021. The value for AGATTTTTAT was 0.983 ± 0.012; that for AGTAAATTTG was 0.9918 ± 0.0076.
